# From PMC3115443
# Target: 326^βB (TP0326 β-barrel construct with a C-terminal His-tag) (Treponema pallidum subspecies pallidum (Nichols-Farmington strain))
# Test: native gel or EMSA
substance,measurement,value
326^βB (TP0326 β-barrel construct with a C-terminal His-tag) (domain or fragment),stoichiometry N,3
